Test results published in patent US20140087995A1 (published 2014).
Numbered stars: 1 amine (or outer) side, 2 acyl side, 3 side chain; on linkers, the order of the positions; unused ones are H or OH. Bridge positions count the residues as written; N and C are the ends. Side chains are listed from the residue outwards. Ends that are not written are not given here. * marks the point of attachment. C20 diacid = O=C(O)CCCCCCCCCCCCCCCCCCC(=O)*; γGlu = O=C(O)[C@H](CCC(=O)[*:2])N[*:1]

T1: rat amylin receptor (rat calcitonin receptor + rat RAMP 3) (rat, UniProt P32214 25-516; Q9JJ73 23-147)
T1 construct: whole, on cells; Membranes of transiently transfected BHK tk'ts 13 cells (Assay VI); also called rAmylin-R; rat amylin 3(a) receptor
T1 sequence (looked up) 1: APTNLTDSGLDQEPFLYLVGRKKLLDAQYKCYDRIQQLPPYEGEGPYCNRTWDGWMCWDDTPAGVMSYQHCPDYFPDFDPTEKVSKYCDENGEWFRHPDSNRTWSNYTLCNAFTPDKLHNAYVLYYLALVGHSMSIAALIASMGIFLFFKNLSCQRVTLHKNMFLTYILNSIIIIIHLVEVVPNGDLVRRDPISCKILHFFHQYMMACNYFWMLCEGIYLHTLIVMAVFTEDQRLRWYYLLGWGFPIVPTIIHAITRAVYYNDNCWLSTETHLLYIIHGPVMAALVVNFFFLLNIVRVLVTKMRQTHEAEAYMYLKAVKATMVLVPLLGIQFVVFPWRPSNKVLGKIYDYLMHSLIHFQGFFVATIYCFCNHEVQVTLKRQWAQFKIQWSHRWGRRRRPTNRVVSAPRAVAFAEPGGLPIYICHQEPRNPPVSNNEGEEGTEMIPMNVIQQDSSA
T1 sequence (looked up) 2: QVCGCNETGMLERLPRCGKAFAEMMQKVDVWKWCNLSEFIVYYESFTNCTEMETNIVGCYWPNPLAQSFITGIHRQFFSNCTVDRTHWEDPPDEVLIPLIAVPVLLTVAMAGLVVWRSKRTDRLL

T2: rat calcitonin receptor (rat, UniProt P32214 25-516)
T2 construct: whole, on cells; Membranes of transiently transfected BHK tk'ts 13 cells (Assay VIII); also called rCTR
T2 sequence (looked up): T1 sequence (looked up) 1

T3: human calcitonin receptor (human, UniProt P30988 25-474)
T3 construct: whole, on cells; Membranes of a stably transfected BHK cell line (Assay VII); also called hCTR; hCT
T3 sequence (looked up): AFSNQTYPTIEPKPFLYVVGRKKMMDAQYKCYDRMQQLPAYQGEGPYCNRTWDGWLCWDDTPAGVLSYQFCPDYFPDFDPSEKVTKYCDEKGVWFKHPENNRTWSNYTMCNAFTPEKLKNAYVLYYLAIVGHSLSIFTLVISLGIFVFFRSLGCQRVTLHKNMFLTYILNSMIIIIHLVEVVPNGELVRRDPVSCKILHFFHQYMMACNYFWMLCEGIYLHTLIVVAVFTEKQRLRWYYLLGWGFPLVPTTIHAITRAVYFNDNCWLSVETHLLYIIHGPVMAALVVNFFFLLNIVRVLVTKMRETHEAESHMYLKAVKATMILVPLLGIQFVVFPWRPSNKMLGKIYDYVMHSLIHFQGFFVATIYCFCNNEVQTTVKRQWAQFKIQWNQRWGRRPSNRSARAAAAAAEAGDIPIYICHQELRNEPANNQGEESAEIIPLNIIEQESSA

B1: N^-1-[(4S)-4-carboxy-4-(19-carboxynonadecanoylamino)butanoyl]-Gly[Arg1,His14,Arg17,Pro21,Pro27,His34]-h-amylin (peptide)
peptide: {C20 diacid-γGlu}-GRCNTATCATQRLAHFLRHSSPNFGAIPSSTNVGHNTY-NH2
modifications: disulfide 3-8
SMILES: CC[C@H](C)[C@H](NC(=O)[C@H](C)NC(=O)CNC(=O)[C@H](Cc1ccccc1)NC(=O)[C@H](CC(N)=O)NC(=O)[C@@H]1CCCN1C(=O)[C@H](CO)NC(=O)[C@H](CO)NC(=O)[C@H](Cc1c[nH]cn1)NC(=O)[C@H](CCCNC(=N)N)NC(=O)[C@H](CC(C)C)NC(=O)[C@H](Cc1ccccc1)NC(=O)[C@H](Cc1c[nH]cn1)NC(=O)[C@H](C)NC(=O)[C@H](CC(C)C)NC(=O)[C@H](CCCNC(=N)N)NC(=O)[C@H](CCC(N)=O)NC(=O)[C@@H](NC(=O)[C@H](C)NC(=O)[C@@H]1CSSC[C@H](NC(=O)[C@H](CCCNC(=N)N)NC(=O)CNC(=O)CC[C@H](NC(=O)CCCCCCCCCCCCCCCCCCC(=O)O)C(=O)O)C(=O)N[C@@H](CC(N)=O)C(=O)N[C@@H]([C@@H](C)O)C(=O)N[C@@H](C)C(=O)N[C@@H]([C@@H](C)O)C(=O)N1)[C@@H](C)O)C(=O)N1CCC[C@H]1C(=O)N[C@@H](CO)C(=O)N[C@@H](CO)C(=O)N[C@H](C(=O)N[C@@H](CC(N)=O)C(=O)N[C@H](C(=O)NCC(=O)N[C@@H](Cc1c[nH]cn1)C(=O)N[C@@H](CC(N)=O)C(=O)N[C@H](C(=O)N[C@@H](Cc1ccc(O)cc1)C(N)=O)[C@@H](C)O)C(C)C)[C@@H](C)O
notes: also called compound 100
B2: N^-1-[(4S)-4-carboxy-4-(19-carboxynonadecanoylamino)butanoyl]-Gly[Arg1,Ala14,Arg17,Pro21,Pro27,His34]-h-amylin (peptide)
peptide: {C20 diacid-γGlu}-GRCNTATCATQRLAAFLRHSSPNFGAIPSSTNVGHNTY-NH2
modifications: disulfide 3-8
SMILES: CC[C@H](C)[C@H](NC(=O)[C@H](C)NC(=O)CNC(=O)[C@H](Cc1ccccc1)NC(=O)[C@H](CC(N)=O)NC(=O)[C@@H]1CCCN1C(=O)[C@H](CO)NC(=O)[C@H](CO)NC(=O)[C@H](Cc1c[nH]cn1)NC(=O)[C@H](CCCNC(=N)N)NC(=O)[C@H](CC(C)C)NC(=O)[C@H](Cc1ccccc1)NC(=O)[C@H](C)NC(=O)[C@H](C)NC(=O)[C@H](CC(C)C)NC(=O)[C@H](CCCNC(=N)N)NC(=O)[C@H](CCC(N)=O)NC(=O)[C@@H](NC(=O)[C@H](C)NC(=O)[C@@H]1CSSC[C@H](NC(=O)[C@H](CCCNC(=N)N)NC(=O)CNC(=O)CC[C@H](NC(=O)CCCCCCCCCCCCCCCCCCC(=O)O)C(=O)O)C(=O)N[C@@H](CC(N)=O)C(=O)N[C@@H]([C@@H](C)O)C(=O)N[C@@H](C)C(=O)N[C@@H]([C@@H](C)O)C(=O)N1)[C@@H](C)O)C(=O)N1CCC[C@H]1C(=O)N[C@@H](CO)C(=O)N[C@@H](CO)C(=O)N[C@H](C(=O)N[C@@H](CC(N)=O)C(=O)N[C@H](C(=O)NCC(=O)N[C@@H](Cc1c[nH]cn1)C(=O)N[C@@H](CC(N)=O)C(=O)N[C@H](C(=O)N[C@@H](Cc1ccc(O)cc1)C(N)=O)[C@@H](C)O)C(C)C)[C@@H](C)O
B3: N{-1}-[(4S)-4-carboxy-4-(19-carboxynonadecanoylamino)butanoyl]-Gly[Arg1,His14,Arg17,Pro21,Pro27]-h-amylin (peptide)
peptide: {C20 diacid-γGlu}-GRCNTATCATQRLAHFLRHSSPNFGAIPSSTNVGSNTY-NH2
modifications: disulfide 3-8
SMILES: CC[C@H](C)[C@H](NC(=O)[C@H](C)NC(=O)CNC(=O)[C@H](Cc1ccccc1)NC(=O)[C@H](CC(N)=O)NC(=O)[C@@H]1CCCN1C(=O)[C@H](CO)NC(=O)[C@H](CO)NC(=O)[C@H](Cc1c[nH]cn1)NC(=O)[C@H](CCCNC(=N)N)NC(=O)[C@H](CC(C)C)NC(=O)[C@H](Cc1ccccc1)NC(=O)[C@H](Cc1c[nH]cn1)NC(=O)[C@H](C)NC(=O)[C@H](CC(C)C)NC(=O)[C@H](CCCNC(=N)N)NC(=O)[C@H](CCC(N)=O)NC(=O)[C@@H](NC(=O)[C@H](C)NC(=O)[C@@H]1CSSC[C@H](NC(=O)[C@H](CCCNC(=N)N)NC(=O)CNC(=O)CC[C@H](NC(=O)CCCCCCCCCCCCCCCCCCC(=O)O)C(=O)O)C(=O)N[C@@H](CC(N)=O)C(=O)N[C@@H]([C@@H](C)O)C(=O)N[C@@H](C)C(=O)N[C@@H]([C@@H](C)O)C(=O)N1)[C@@H](C)O)C(=O)N1CCC[C@H]1C(=O)N[C@@H](CO)C(=O)N[C@@H](CO)C(=O)N[C@H](C(=O)N[C@@H](CC(N)=O)C(=O)N[C@H](C(=O)NCC(=O)N[C@@H](CO)C(=O)N[C@@H](CC(N)=O)C(=O)N[C@H](C(=O)N[C@@H](Cc1ccc(O)cc1)C(N)=O)[C@@H](C)O)C(C)C)[C@@H](C)O
notes: also called compound 99
B4: N^-1-[(4S)-4-carboxy-4-(19-carboxynonadecanoylamino)butanoyl]-Gly[Arg1,His14,Arg17,Pro21,Pro27,Pro34]-h-amylin (peptide)
peptide: {C20 diacid-γGlu}-GRCNTATCATQRLAHFLRHSSPNFGAIPSSTNVGPNTY-NH2
modifications: disulfide 3-8
SMILES: CC[C@H](C)[C@H](NC(=O)[C@H](C)NC(=O)CNC(=O)[C@H](Cc1ccccc1)NC(=O)[C@H](CC(N)=O)NC(=O)[C@@H]1CCCN1C(=O)[C@H](CO)NC(=O)[C@H](CO)NC(=O)[C@H](Cc1c[nH]cn1)NC(=O)[C@H](CCCNC(=N)N)NC(=O)[C@H](CC(C)C)NC(=O)[C@H](Cc1ccccc1)NC(=O)[C@H](Cc1c[nH]cn1)NC(=O)[C@H](C)NC(=O)[C@H](CC(C)C)NC(=O)[C@H](CCCNC(=N)N)NC(=O)[C@H](CCC(N)=O)NC(=O)[C@@H](NC(=O)[C@H](C)NC(=O)[C@@H]1CSSC[C@H](NC(=O)[C@H](CCCNC(=N)N)NC(=O)CNC(=O)CC[C@H](NC(=O)CCCCCCCCCCCCCCCCCCC(=O)O)C(=O)O)C(=O)N[C@@H](CC(N)=O)C(=O)N[C@@H]([C@@H](C)O)C(=O)N[C@@H](C)C(=O)N[C@@H]([C@@H](C)O)C(=O)N1)[C@@H](C)O)C(=O)N1CCC[C@H]1C(=O)N[C@@H](CO)C(=O)N[C@@H](CO)C(=O)N[C@H](C(=O)N[C@@H](CC(N)=O)C(=O)N[C@H](C(=O)NCC(=O)N1CCC[C@H]1C(=O)N[C@@H](CC(N)=O)C(=O)N[C@H](C(=O)N[C@@H](Cc1ccc(O)cc1)C(N)=O)[C@@H](C)O)C(C)C)[C@@H](C)O
B5: N^ε1-[(4S)-4-carboxy-4-[[(4S)-4-carboxy-4-(19-carboxynonadecanoylamino)butanoyl]amino]butanoyl]-[Ser14,Arg17,Pro21,Pro27,Pro34,Glu35]-h-amylin (peptide)
peptide: K([γGlu-γGlu-C20 diacid])CNTATCATQRLASFLRHSSPNFGAIPSSTNVGPETY-NH2
modifications: disulfide 2-7; N-terminus assumed
SMILES: CC[C@H](C)[C@H](NC(=O)[C@H](C)NC(=O)CNC(=O)[C@H](Cc1ccccc1)NC(=O)[C@H](CC(N)=O)NC(=O)[C@@H]1CCCN1C(=O)[C@H](CO)NC(=O)[C@H](CO)NC(=O)[C@H](Cc1c[nH]cn1)NC(=O)[C@H](CCCNC(=N)N)NC(=O)[C@H](CC(C)C)NC(=O)[C@H](Cc1ccccc1)NC(=O)[C@H](CO)NC(=O)[C@H](C)NC(=O)[C@H](CC(C)C)NC(=O)[C@H](CCCNC(=N)N)NC(=O)[C@H](CCC(N)=O)NC(=O)[C@@H](NC(=O)[C@H](C)NC(=O)[C@@H]1CSSC[C@H](NC(=O)[C@@H](N)CCCCNC(=O)CC[C@H](NC(=O)CC[C@H](NC(=O)CCCCCCCCCCCCCCCCCCC(=O)O)C(=O)O)C(=O)O)C(=O)N[C@@H](CC(N)=O)C(=O)N[C@@H]([C@@H](C)O)C(=O)N[C@@H](C)C(=O)N[C@@H]([C@@H](C)O)C(=O)N1)[C@@H](C)O)C(=O)N1CCC[C@H]1C(=O)N[C@@H](CO)C(=O)N[C@@H](CO)C(=O)N[C@H](C(=O)N[C@@H](CC(N)=O)C(=O)N[C@H](C(=O)NCC(=O)N1CCC[C@H]1C(=O)N[C@@H](CCC(=O)O)C(=O)N[C@H](C(=O)N[C@@H](Cc1ccc(O)cc1)C(N)=O)[C@@H](C)O)C(C)C)[C@@H](C)O
notes: also called compound 120

The binders below were run against T1, rat amylin receptor (rat calcitonin …) (assay: SPA competition with 125I-rat amylin, membranes of BHK cells with rat calcitonin receptor + rat RAMP3 (Assay VI)).

Binder | IC50
B1 | 11.2 nM
B2 | 8.07 nM
B3 | 2.7 nM
{C20 diacid-γGlu}-GRCNTATCATQRLAAFLRHSSPNFGAIPSSTNVGPNTY-NH2 (disulfide 3-8) | 0.436 nM
B4 | 0.674 nM
B5 | 0.161 nM

What follows are binders tested against T2, rat calcitonin receptor (assay: SPA competition with 125I-calcitonin, membranes of BHK cells with rat calcitonin receptor (Assay VIII)).

Binder | IC50
B1 | 311 nM
B2 | 492 nM
B3 | 216 nM
{C20 diacid-γGlu}-GRCNTATCATQRLAAFLRHSSPNFGAIPSSTNVGPNTY-NH2 (disulfide 3-8) | 56.3 nM
B4 | 65.9 nM
B5 | 140 nM

Each binder was assayed against T3, human calcitonin receptor (assay: ratio IC50 human calcitonin receptor / IC50 human amylin receptor (reference)).
How it was run: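 Competition binding by SPA with cell membranes (35 ng/μL) and SPA beads in 50 mM Hepes pH 7.4 with 1 mM CaCl2, 5 mM MgCl2, 0.1% OA and 0.02% Tween20. Incubated 120 min at 25 °C with shaking, then counted.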

Binder | Ratio hCT/hAmylin binding
B1 | 65.3
B2 | 68.6
B3 | 100
{C20 diacid-γGlu}-GRCNTATCATQRLAAFLRHSSPNFGAIPSSTNVGPNTY-NH2 (disulfide 3-8) | 26.5
B4 | 36.2
B5 | 45.3

Each binder was assayed against T2, rat calcitonin receptor (assay: ratio IC50 rat calcitonin receptor / IC50 rat amylin receptor (reference)).

Binder | Ratio rCT/rAmylin binding
B1 | 27.7
B2 | 60.9
B3 | 79.8
{C20 diacid-γGlu}-GRCNTATCATQRLAAFLRHSSPNFGAIPSSTNVGPNTY-NH2 (disulfide 3-8) | 129
B4 | 97.7
B5 | 868
